Results as given in patent US20150203577A1 (Chugai, published 2015).

Key:
mouse FcγRII = biological target: T1, mouse FcγRII (mouse, UniProt P08101 30-210); assay: SPR (Biacore), antibody captured on Protein L, mFcγR as analyte
T1 construct: also called mFcγRII; mFcgRII
T1 sequence: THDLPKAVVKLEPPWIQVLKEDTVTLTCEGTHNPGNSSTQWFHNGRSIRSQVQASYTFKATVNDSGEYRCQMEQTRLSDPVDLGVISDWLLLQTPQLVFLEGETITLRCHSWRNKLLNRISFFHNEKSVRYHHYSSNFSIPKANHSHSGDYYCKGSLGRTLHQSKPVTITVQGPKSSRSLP

mouse FcγRIII = biological target: T2, mouse FcγRIII (mouse, UniProt P08508 31-215); assay: as above
T2 construct: also called mFcγRIII; mFcgRIII
T2 chain: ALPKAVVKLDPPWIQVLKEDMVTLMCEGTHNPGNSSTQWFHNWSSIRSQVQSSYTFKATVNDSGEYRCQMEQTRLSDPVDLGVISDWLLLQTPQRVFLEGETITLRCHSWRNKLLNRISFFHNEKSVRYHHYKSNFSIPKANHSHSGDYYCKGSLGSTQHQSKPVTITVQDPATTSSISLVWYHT

Binder	Kd (mouse FcγRII) [nM]	relative mFcγRII-binding activity (mIgG1 = 1) (mouse FcγRII) [fold]	Kd (mouse FcγRIII) [nM]	relative mFcγRIII-binding activity (mIgG1 = 1) (mouse FcγRIII) [fold]
H237-MB768/MRAL-k0 (antibody, mouse IgG1, kappa, mouse IgG1 CH variant; copies: 2 + 2) heavy: QVQLQESGPGLVKPSETLSLTCAVSGHSISHDHAWSWVRQPPGEGLEWIGFISYSGITNYNPSLQGRVTISRDNSKNTLYLQMNSLRAEDTAVYYCARSLARTTAMDYWGEGTLVTVSSAKTTPPSVYPLAPGSAAQTNSMVTLGCLVKGYFPEPVTVTWNSGSLSSGVHTFPAVLQSDLYTLSSSVTVPSSTWPSETVTCNVAHPASSTKVDKKIVPRDCGCKPCICEPNEVELVFIFPPKPKDVLTITLTPKVTCVVVDISKDDPEVQFSWFVDDVEVHTAQTQPREEQFNSTFRSVSELPIMHQDWLNGKEFKCRVNSAAFPQPIEKTISKTKGRPKAPQVYTIPPPKEQMAKDKVSLTCMITDFFPEDITVEWQWNGQPAENYKNTQPIMDTDGSYFVYSKLNVQKSNWEAGNTFTCSVLHEGLHNHHTEKSLSHSPGK light: not shown	38.9	6.34	2030	0.2
H237-MB769/MRAL-k0 (antibody, mouse IgG1, kappa, mouse IgG1 CH variant; copies: 2 + 2) heavy: QVQLQESGPGLVKPSETLSLTCAVSGHSISHDHAWSWVRQPPGEGLEWIGFISYSGITNYNPSLQGRVTISRDNSKNTLYLQMNSLRAEDTAVYYCARSLARTTAMDYWGEGTLVTVSSAKTTPPSVYPLAPGSAAQTNSMVTLGCLVKGYFPEPVTVTWNSGSLSSGVHTFPAVLQSDLYTLSSSVTVPSSTWPSETVTCNVAHPASSTKVDKKIVPRDCGCKPCICEPNEVELVFIFPPKPKDVLTITLTPKVTCVVVDISKDDPEVQFSWFVDDVEVHTAQTQPREEQFNSTFRSVSELPIMHQDWLNGKEFKCRVNSAAFPADIEKTISKTKGRPKAPQVYTIPPPKEQMAKDKVSLTCMITDFFPEDITVEWQWNGQPAENYKNTQPIMDTDGSYFVYSKLNVQKSNWEAGNTFTCSVLHEGLHNHHTEKSLSHSPGK light: not shown	63.2	3.9	4380	0.09
H237-MB778/MRAL-k0 (antibody, mouse IgG1, kappa, mouse IgG1 CH variant; copies: 2 + 2) heavy: QVQLQESGPGLVKPSETLSLTCAVSGHSISHDHAWSWVRQPPGEGLEWIGFISYSGITNYNPSLQGRVTISRDNSKNTLYLQMNSLRAEDTAVYYCARSLARTTAMDYWGEGTLVTVSSAKTTPPSVYPLAPGSAAQTNSMVTLGCLVKGYFPEPVTVTWNSGSLSSGVHTFPAVLQSDLYTLSSSVTVPSSTWPSETVTCNVAHPASSTKVDKKIVPRDCGCKPCICEPNEVELVFIFPPKPKDVLTITLTPKVTCVVVDISKDDPEVQFSWFVDDVEVHTAQTQPREEQFNSTFRSVSELPIMHQDWLNGKEFKCRVNSAAFPAPIEKTIKKTKGRPKAPQVYTIPPPKEQMAKDKVSLTCMITDFFPEDITVEWQWNGQPAENYKNTQPIMDTDGSYFVYSKLNVQKSNWEAGNTFTCSVLHEGLHNHHTEKSLSHSPGK light: not shown	34.2	7.21	2540	0.16
H237-MB832/MRAL-k0 (antibody, mouse IgG1, kappa, mouse IgG1 CH variant; copies: 2 + 2) heavy: QVQLQESGPGLVKPSETLSLTCAVSGHSISHDHAWSWVRQPPGEGLEWIGFISYSGITNYNPSLQGRVTISRDNSKNTLYLQMNSLRAEDTAVYYCARSLARTTAMDYWGEGTLVTVSSAKTTPPSVYPLAPGSAAQTNSMVTLGCLVKGYFPEPVTVTWNSGSLSSGVHTFPAVLQSDLYTLSSSVTVPSSTWPSETVTCNVAHPASSTKVDKKIVPRDCGCKPCICEPNEVELVFIFPPKPKDVLTITLTPKVTCVVVDISKDDPEVQFSWFVDDVEVHTAQTQPREEQFNSTFRSVSELPIMHQDWLNGKEFKCRVNSAAFPAYIYKTISKTKGRPKAPQVYTIPPPKEQMAKDKVSLTCMITDFFPEDITVEWQWNGQPAENYKNTQPIMDTDGSYFVYSKLNVQKSNWEAGNTFTCSVLHEGLHNHHTEKSLSHSPGK light: not shown	40.4	5.16	3050	0.12
H237-MB781/MRAL-k0 (antibody, mouse IgG1, kappa, mouse IgG1 CH variant; copies: 2 + 2) heavy: QVQLQESGPGLVKPSETLSLTCAVSGHSISHDHAWSWVRQPPGEGLEWIGFISYSGITNYNPSLQGRVTISRDNSKNTLYLQMNSLRAEDTAVYYCARSLARTTAMDYWGEGTLVTVSSAKTTPPSVYPLAPGSAAQTNSMVTLGCLVKGYFPEPVTVTWNSGSLSSGVHTFPAVLQSDLYTLSSSVTVPSSTWPSETVTCNVAHPASSTKVDKKIVPRDCGCKPCICEPNEVELVFIFPPKPKDVLTITLTPKVTCVVVDISKDDPEVQFSWFVDDVEVHTAQTQPREEQFNSTFRSVSELPIMHQDWLNGKEFKCRVNSAAFPKPIEKTISKTKGRPKAPQVYTIPPPKEQMAKDKVSLTCMITDFFPEDITVEWQWNGQPAENYKNTQPIMDTDGSYFVYSKLNVQKSNWEAGNTFTCSVLHEGLHNHHTEKSLSHSPGK light: not shown	40.5	6.08	2120	0.19
H237-MB830/MRAL-k0 (antibody, mouse IgG1, kappa, mouse IgG1 CH variant; copies: 2 + 2) heavy: QVQLQESGPGLVKPSETLSLTCAVSGHSISHDHAWSWVRQPPGEGLEWIGFISYSGITNYNPSLQGRVTISRDNSKNTLYLQMNSLRAEDTAVYYCARSLARTTAMDYWGEGTLVTVSSAKTTPPSVYPLAPGSAAQTNSMVTLGCLVKGYFPEPVTVTWNSGSLSSGVHTFPAVLQSDLYTLSSSVTVPSSTWPSETVTCNVAHPASSTKVDKKIVPRDCGCKPCICEPNEVELVFIFPPKPKDVLTITLTPKVTCVVVDISKDDPEVQFSWFVDDVEVHTAQTQPREEQFNSTFRSVSELPIMHQDWLNGKEFKCRVNSAAFPAFIYKTISKTKGRPKAPQVYTIPPPKEQMAKDKVSLTCMITDFFPEDITVEWQWNGQPAENYKNTQPIMDTDGSYFVYSKLNVQKSNWEAGNTFTCSVLHEGLHNHHTEKSLSHSPGK light: not shown	43.6	4.78	3380	0.1
H237-MB883/MRAL-k0 (antibody, mouse IgG1, kappa, mouse IgG1 CH variant; copies: 2 + 2) heavy: QVQLQESGPGLVKPSETLSLTCAVSGHSISHDHAWSWVRQPPGEGLEWIGFISYSGITNYNPSLQGRVTISRDNSKNTLYLQMNSLRAEDTAVYYCARSLARTTAMDYWGEGTLVTVSSAKTTPPSVYPLAPGSAAQTNSMVTLGCLVKGYFPEPVTVTWNSGSLSSGVHTFPAVLQSDLYTLSSSVTVPSSTWPSETVTCNVAHPASSTKVDKKIVPRDCGCKPCICEPAEESLVFIFPPKPKDVLTITLTPKVTCVVVDISKDDPEVQFSWFVDDVEVHTAQTQPREEQFNSTFRSVSELPIMHQDWLNGKEFKCRVNSAAFPAPIEKTISKTKGRPKAPQVYTIPPPKEQMAKDKVSLTCMITDFFPEDITVEWQWNGQPAENYKNTQPIMDTDGSYFVYSKLNVQKSNWEAGNTFTCSVLHEGLHNHHTEKSLSHSPGK light: not shown	164	2.21	4960	0.11
H237-MB772/MRAL-k0 (antibody, mouse IgG1, kappa, mouse IgG1 CH variant; copies: 2 + 2) heavy: QVQLQESGPGLVKPSETLSLTCAVSGHSISHDHAWSWVRQPPGEGLEWIGFISYSGITNYNPSLQGRVTISRDNSKNTLYLQMNSLRAEDTAVYYCARSLARTTAMDYWGEGTLVTVSSAKTTPPSVYPLAPGSAAQTNSMVTLGCLVKGYFPEPVTVTWNSGSLSSGVHTFPAVLQSDLYTLSSSVTVPSSTWPSETVTCNVAHPASSTKVDKKIVPRDCGCKPCICEPNEVELVFIFPPKPKDVLTITLTPKVTCVVVDISKDDPEVQFSWFVDDVEVHTAQTQPREEQFNSTFRSVSELPIMHQDWLNGKEFKCRVNSAAFPAPINKTISKTKGRPKAPQVYTIPPPKEQMAKDKVSLTCMITDFFPEDITVEWQWNGQPAENYKNTQPIMDTDGSYFVYSKLNVQKSNWEAGNTFTCSVLHEGLHNHHTEKSLSHSPGK light: not shown	60.5	4.07	3890	0.1
H237-MB793/MRAL-k0 (antibody, mouse IgG1, kappa, mouse IgG1 CH variant; copies: 2 + 2) heavy: QVQLQESGPGLVKPSETLSLTCAVSGHSISHDHAWSWVRQPPGEGLEWIGFISYSGITNYNPSLQGRVTISRDNSKNTLYLQMNSLRAEDTAVYYCARSLARTTAMDYWGEGTLVTVSSAKTTPPSVYPLAPGSAAQTNSMVTLGCLVKGYFPEPVTVTWNSGSLSSGVHTFPAVLQSDLYTLSSSVTVPSSTWPSETVTCNVAHPASSTKVDKKIVPRDCGCKPCICQPNEVEIVFIFPPKPKDVLTITLTPKVTCVVVDISKDDPEVQFSWFVDDVEVHTAQTQPREEQFNSTFRSVSELPIMHQDWLNGKEFKCRVNSAAFPAPIEKTISKTKGRPKAPQVYTIPPPKEQMAKDKVSLTCMITDFFPEDITVEWQWNGQPAENYKNTQPIMDTDGSYFVYSKLNVQKSNWEAGNTFTCSVLHEGLHNHHTEKSLSHSPGK light: not shown	179	1.37	5500	0.07
H237-MB884/MRAL-k0 (antibody, mouse IgG1, kappa, mouse IgG1 CH variant; copies: 2 + 2) heavy: QVQLQESGPGLVKPSETLSLTCAVSGHSISHDHAWSWVRQPPGEGLEWIGFISYSGITNYNPSLQGRVTISRDNSKNTLYLQMNSLRAEDTAVYYCARSLARTTAMDYWGEGTLVTVSSAKTTPPSVYPLAPGSAAQTNSMVTLGCLVKGYFPEPVTVTWNSGSLSSGVHTFPAVLQSDLYTLSSSVTVPSSTWPSETVTCNVAHPASSTKVDKKIVPRDCGCKPCICEPNEESLVFIFPPKPKDVLTITLTPKVTCVVVDISKDDPEVQFSWFVDDVEVHTAQTQPREEQFNSTFRSVSELPIMHQDWLNGKEFKCRVNSAAFPAPIEKTISKTKGRPKAPQVYTIPPPKEQMAKDKVSLTCMITDFFPEDITVEWQWNGQPAENYKNTQPIMDTDGSYFVYSKLNVQKSNWEAGNTFTCSVLHEGLHNHHTEKSLSHSPGK light: not shown	148	2.46	5910	0.09
